Data on 32 molecules can be found in US20240018502A1.

Positions count from the first letter of the chain named. Numbers in names are those of the source.

B1: MTSP-1 protease domain I41E/F97A/F99M/C122S/G151N/Q175R/Q192S/D217E (enzyme)
chain: VVGGTDADEGEWPWQVSLHALGQGHECGASLISPNWLVSAAHCYIDDRGFRYSDPTQWTAFLGLHDQSQRSAPGVQERRLKRIISHPFFNDATMDYDIALLELEKPAEYSSMVRPISLPDASHVFPAGKAIWVTGWGHTQYGGTNALILQKGEIRVINQTTCENLLPQRITPRMMCVGFLSGGVDSCSGDSGGPLSSVEADGRIFQAGVVSWGEGCAQRNKPGVYTRLPLFRDWIKENTGV
B2: MTSP-1 protease domain F97V/F99L/C122S/G151N/Q175L/Q192S/D217H (enzyme)
chain: B1 chain with E26I, A92V, M94L, R169L, E214H
B3: MTSP-1 protease domain I41D/F99L/C122S/G151N/Q175S/Q192T/D217A (enzyme)
chain: B1 chain with E26D, A92F, M94L, R169S, S188T, E214A
B4: MTSP-1 protease domain I41D/F97T/F99L/C122S/G151N/Q175S/Q192T (enzyme)
chain: B1 chain with E26D, A92T, M94L, R169S, S188T, E214D
B5: MTSP-1 protease domain I41D/F97R/F99L/C122S/G151Q/Q175R/D217L (enzyme)
chain: B1 chain with E26D, A92R, M94L, N145Q, S188Q, E214L
B6: MTSP-1 protease domain I41D/F97R/F99L/C122S/Q175R/Q192V/D217L (enzyme)
chain: B1 chain with E26D, A92R, M94L, N145G, S188V, E214L
B7: MTSP-1 protease domain I41S/F97Q/F99L/C122S/Q175W/Q192V/D217R (enzyme)
chain: B1 chain with E26S, A92Q, M94L, N145G, R169W, S188V, E214R
B8: MTSP-1 protease domain I41G/F97V/F99L/C122S/G151N/Q192T/D217V (enzyme)
chain: B1 chain with E26G, A92V, M94L, R169Q, S188T, E214V
B9: MTSP-1 protease domain I41D/F97T/F99L/C122S/Q175S/Q192T/D217A (enzyme)
chain: B1 chain with E26D, A92T, M94L, N145G, R169S, S188T, E214A
B10: MTSP-1 I41D/C122S/G151N/Q192T (enzyme)
chain: B1 chain with E26D, A92F, M94F, R169Q, S188T, E214D
B11: MTSP-1 protease domain I41G/F99L/C122S/G151N/Q192T/D217T (enzyme)
chain: B1 chain with E26G, A92F, M94L, R169Q, S188T, E214T
B12: MTSP-1 protease domain I41E/F99L/C122S/G151N/Q175L/Q192S/D217H (enzyme)
chain: B1 chain with A92F, M94L, R169L, E214H
B13: MTSP-1 protease domain I41G/F97L/F99L/C122S/G151N/Q192V/D217L (enzyme)
chain: B1 chain with E26G, A92L, M94L, R169Q, S188V, E214L
B14: MTSP-1 protease domain I41E/F97V/F99L/C122S/G151N/Q175L/D217H (enzyme)
chain: B1 chain with A92V, M94L, R169L, S188Q, E214H
B15: MTSP-1 protease domain I41E/F97V/F99L/C122S/Q175L/Q192S/D217H (enzyme)
chain: B1 chain with A92V, M94L, N145G, R169L, E214H
B16: MTSP-1 protease domain I41G/F99L/C122S/Q175I/Q192T/D217T (enzyme)
chain: B1 chain with E26G, A92F, M94L, N145G, R169I, S188T, E214T
B17: MTSP-1 protease domain F97T/F99L/C122S/G151N/Q175S/Q192T/D217A (enzyme)
chain: B1 chain with E26I, A92T, M94L, R169S, S188T, E214A
B18: MTSP-1 protease domain I41D/F97T/F99L/C122S/G151N/Q175S/D217A (enzyme)
chain: B1 chain with E26D, A92T, M94L, R169S, S188Q, E214A
B19: MTSP-1 protease domain I41G/F99L/C122S/G151N/Q175I/Q192T (enzyme)
chain: B1 chain with E26G, A92F, M94L, R169I, S188T, E214D
B20: MTSP-1 protease domain I41E/F97R/F99L/C122S/G151Q/Q175G/Q192T (enzyme)
chain: B1 chain with A92R, M94L, N145Q, R169G, S188T, E214D
B21: MTSP-1 protease domain I41D/F99L/C122S/G151Q/Q175R/Q192V/D217L (enzyme)
chain: B1 chain with E26D, A92F, M94L, N145Q, S188V, E214L
B22: MTSP-1 protease domain I41D/F97R/F99L/C122S/G151Q/Q175R/Q192V (enzyme)
chain: B1 chain with E26D, A92R, M94L, N145Q, S188V, E214D
B23: MTSP-1 protease domain I41D/F97T/F99L/C122S/G151N/Q192T/D217A (enzyme)
chain: B1 chain with E26D, A92T, M94L, R169Q, S188T, E214A
B24: MTSP-1 protease domain I41E/F97V/F99L/C122S/G151N/Q192S/D217H (enzyme)
chain: B1 chain with A92V, M94L, R169Q, E214H
B25: MTSP-1 protease domain I41G/F97A/F99L/C122S/G151N/Q175M/Q192S (enzyme)
chain: B1 chain with E26G, M94L, R169M, E214D
B26: MTSP-1 protease domain F97R/F99L/C122S/G151Q/Q175R/Q192V/D217L (enzyme)
chain: B1 chain with E26I, A92R, M94L, N145Q, S188V, E214L
B27: MTSP-1 protease domain I41D/F97R/F99L/C122S/Q175L/Q192T/D217I (enzyme)
chain: B1 chain with E26D, A92R, M94L, N145G, R169L, S188T, E214I
B28: MTSP-1 protease domain I41D/F97R/F99L/C122S/G151Q/Q192V/D217L (enzyme)
chain: B1 chain with E26D, A92R, M94L, N145Q, R169Q, S188V, E214L
B29: MTSP-1 protease domain I41E/F97V/F99L/C122S/G151N/Q175L/Q192S (enzyme)
chain: B1 chain with A92V, M94L, R169L, E214D
B30: MTSP-1 protease domain I41E/F97S/F99L/C122S/Q175L/Q192V/D217A (enzyme)
chain: B1 chain with A92S, M94L, N145G, R169L, S188V, E214A
B31: MTSP-1 Q38H/I41S/D60bT/F60eS/Y60gW/D96K/ins97aV/T98P/F99L/C122S/G151H/Q175L/Q192D (enzyme)
chain: VVGGTDADEGEWPWQVSLHALGHGHSCGASLISPNWLVSAAHCYIDTRGSRWSDPTQWTAFLGLHDQSQRSAPGVQERRLKRIISHPFFNKFVPLDYDIALLELEKPAEYSSMVRPISLPDASHVFPAGKAIWVTGWGHTQYGGTHALILQKGEIRVINQTTCENLLPQLITPRMMCVGFLSGGVDSCDGDSGGPLSSVEADGRIFQAGVVSWGDGCAQRNKPGVYTRLPLFRDWIKENTGV
B32: MTSP-1 Q38H/I41S/D60bT/F60eS/Y60gW/D96K/F97G/ins97aV/T98P/F99L/C122S/G151H/Q175L (enzyme)
chain: B31 chain with F92G, D189Q

For the test, the target named is plasma purified human complement protein C3 (human) (UniProt P01024). As to the kind of experiment: cell-based or functional assay.
Sequence of plasma purified human complement protein C3 (human) (P01024 23-667, chain 1 of 2): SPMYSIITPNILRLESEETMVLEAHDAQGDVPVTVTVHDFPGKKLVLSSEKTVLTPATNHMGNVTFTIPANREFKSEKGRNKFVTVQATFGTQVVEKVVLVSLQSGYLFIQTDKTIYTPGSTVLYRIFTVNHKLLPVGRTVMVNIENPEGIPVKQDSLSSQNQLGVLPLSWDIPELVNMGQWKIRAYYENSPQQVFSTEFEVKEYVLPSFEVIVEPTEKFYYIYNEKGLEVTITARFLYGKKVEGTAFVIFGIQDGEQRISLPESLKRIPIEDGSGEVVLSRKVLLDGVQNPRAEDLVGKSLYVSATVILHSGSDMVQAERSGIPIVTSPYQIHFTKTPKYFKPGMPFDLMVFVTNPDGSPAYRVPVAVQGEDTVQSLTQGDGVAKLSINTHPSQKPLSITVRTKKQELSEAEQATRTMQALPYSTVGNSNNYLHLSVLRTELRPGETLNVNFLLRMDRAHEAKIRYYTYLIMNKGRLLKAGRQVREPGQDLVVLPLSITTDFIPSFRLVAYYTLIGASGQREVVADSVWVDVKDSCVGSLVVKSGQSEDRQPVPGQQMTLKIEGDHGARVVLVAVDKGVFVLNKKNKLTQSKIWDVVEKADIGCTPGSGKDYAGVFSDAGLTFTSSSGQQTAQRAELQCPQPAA
Sequence of plasma purified human complement protein C3 (human) (P01024 672-1663, chain 2 of 2): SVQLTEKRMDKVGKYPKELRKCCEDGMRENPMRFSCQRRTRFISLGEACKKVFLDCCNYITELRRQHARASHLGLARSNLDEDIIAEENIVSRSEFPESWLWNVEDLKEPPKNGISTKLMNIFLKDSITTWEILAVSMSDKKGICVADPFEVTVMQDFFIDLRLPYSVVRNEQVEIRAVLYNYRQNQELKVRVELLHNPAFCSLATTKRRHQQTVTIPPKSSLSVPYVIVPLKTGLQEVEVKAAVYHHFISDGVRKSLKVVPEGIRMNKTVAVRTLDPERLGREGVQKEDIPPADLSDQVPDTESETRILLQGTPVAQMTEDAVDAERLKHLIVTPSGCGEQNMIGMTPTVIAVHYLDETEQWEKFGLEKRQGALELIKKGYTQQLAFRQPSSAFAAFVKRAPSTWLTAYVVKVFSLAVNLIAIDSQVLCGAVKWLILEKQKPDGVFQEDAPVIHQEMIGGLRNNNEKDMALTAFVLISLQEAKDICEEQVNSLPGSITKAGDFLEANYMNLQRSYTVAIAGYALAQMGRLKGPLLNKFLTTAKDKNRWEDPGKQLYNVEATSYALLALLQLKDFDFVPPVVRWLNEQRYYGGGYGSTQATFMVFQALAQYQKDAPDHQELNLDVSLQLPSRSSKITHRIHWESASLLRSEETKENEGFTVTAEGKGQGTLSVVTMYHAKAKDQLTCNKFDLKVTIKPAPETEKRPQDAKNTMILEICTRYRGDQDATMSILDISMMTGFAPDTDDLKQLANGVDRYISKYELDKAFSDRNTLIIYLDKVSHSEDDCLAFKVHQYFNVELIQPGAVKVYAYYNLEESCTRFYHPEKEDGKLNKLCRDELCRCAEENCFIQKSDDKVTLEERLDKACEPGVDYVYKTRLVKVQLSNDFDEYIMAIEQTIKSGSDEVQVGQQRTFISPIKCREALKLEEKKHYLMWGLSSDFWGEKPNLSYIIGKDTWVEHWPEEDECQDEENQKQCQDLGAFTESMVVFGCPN
Molecule B1 registered an EC50 hC3 cleavage of 485 nM.
On the same count and under the same terms, to B2 belongs 91.6 nM; to B3, 30.5 nM; to B4, 56.7 nM.
Molecule B5 came in with an EC50 hC3 cleavage of 19.4 nM.
As for B6, the EC50 hC3 cleavage came to 50.6 nM.
Still for that read-out and setting: to B7 belongs 50.6 nM.
As to B8, the EC50 hC3 cleavage was determined as 30.5 nM.
The molecule B9 displayed an EC50 hC3 cleavage of 52.1 nM.
B10 returned an EC50 of hC3 cleavage of 85.2 nM.
The molecule B11 came in with an EC50 hC3 cleavage of 44.7 nM.
Take B12: the EC50 hC3 cleavage turned out to be 27.1 nM.
For the molecule B13, the EC50 hC3 cleavage was found to be 112 nM.
Molecule B14 came in with an EC50 hC3 cleavage of 16.5 nM.
Take B15: the EC50 hC3 cleavage was 44.3 nM.
B16 gave an EC50 hC3 cleavage of 81.8 nM.
On the same count and under the same terms, as for B17, the figure is 172 nM; as for B18, 25.5 nM.
As to B19, the EC50 hC3 cleavage came to 51.6 nM.
Turning to B20, the EC50 hC3 cleavage is 41.1 nM.
The molecule B21 yielded an EC50 hC3 cleavage of 31.6 nM.
In the case of B22, the EC50 hC3 cleavage worked out at 79.4 nM.
As to B23, the EC50 hC3 cleavage stood at 70.4 nM.
Turning to B24, the EC50 hC3 cleavage came out at 42.2 nM.
Take B25: the EC50 hC3 cleavage is 73.1 nM.
The molecule B26 came in with an EC50 hC3 cleavage of 137 nM.
The same measure, in the same setting: as for B27, the figure is 5.72 nM; as for B28, 42.3 nM.
The molecule B29 had an EC50 hC3 cleavage of 51.2 nM.
B30 yielded an EC50 hC3 cleavage of 89.9 nM.
Take B31: the EC50 of hC3 cleavage is 12 nM.
In turn, B32 returned an EC50 of hC3 cleavage of 1.45 nM.
